From the supplement of paper PMC9112550, “Optimization of the antimicrobial peptide Bac7 by deep mutational scanning” (BMC Biology, 2022) come the findings set out here.
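Note: peptides expressed intracellularly from a pBAD plasmid library in pooled LB shake-flask culture, induced with 0.3% L-arabinose, DNA abundance read by NGS, three biological replicates, DESeq2 with apeglm shrinkage.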

This data set has as its system Escherichia coli TOP10. Briefly: shrunken log2 fold change of peptide-encoding DNA abundance (4.5 h post-induction vs induction); higher = less antimicrobial activity (less host growth inhibition). The conditions noted are these: time post-induction: 4.5 h; library: site-saturation at positions 5, 18, 19, 20.
Consider RRIRLRPPRLPRPRPRPSMFPRP, for which the “shrunken log2 fold change” value was -0.498.

Take RRIRYRPPRLPRPRPRPPLGPRP: the “shrunken log2 fold change” value is -0.258.

For RRIRHRPPRLPRPRPRPSKHPRP, the “shrunken log2 fold change” value is -0.177. For the sequence RRIRTRPPRLPRPRPRPPIVPRP, the “shrunken log2 fold change” value was -0.175. In the case of RRIRHRPPRLPRPRPRPSNHPRP, the “shrunken log2 fold change” value was -0.461. As to RRIRIRPPRLPRPRPRPYMMPRP, the “shrunken log2 fold change” value was -1.26. Consider RRIRRRPPRLPRPRPRPYECPRP, for which the “shrunken log2 fold change” value was -0.0148. On to RRIRMRPPRLPRPRPRPDKPPRP, for which the “shrunken log2 fold change” value is -0.00474. Regarding RRIRSRPPRLPRPRPRPVINPRP, the “shrunken log2 fold change” value is -0.106.

RRIRGRPPRLPRPRPRPTDTPRP: the “shrunken log2 fold change” value came out at 0.656.

With RRIRVRPPRLPRPRPRPYYMPRP, the “shrunken log2 fold change” value was -0.997. In the case of RRIRYRPPRLPRPRPRPQMSPRP it was -0.0435; in that of RRIRLRPPRLPRPRPRPMEKPRP, 0.0493; in that of RRIRGRPPRLPRPRPRPMVLPRP, -0.0349. With RRIRSRPPRLPRPRPRPNVKPRP, the “shrunken log2 fold change” value was -0.332. RRIRLRPPRLPRPRPRPHQRPRP: the “shrunken log2 fold change” value is -0.259.

On to RRIRNRPPRLPRPRPRPQMIPRP, for which the “shrunken log2 fold change” value is -0.0608.

As for RRIRSRPPRLPRPRPRPKNQPRP, the “shrunken log2 fold change” value is -0.177. With RRIRHRPPRLPRPRPRPEQRPRP the figure was 0.229. Turning to RRIRVRPPRLPRPRPRPVQNPRP, the “shrunken log2 fold change” value was -0.029.

Regarding RRIRKRPPRLPRPRPRPSAIPRP, the “shrunken log2 fold change” value is -0.00962.

Regarding RRIRLRPPRLPRPRPRPVWHPRP, the “shrunken log2 fold change” value is -0.047. In the case of RRIRHRPPRLPRPRPRPRCRPRP, the “shrunken log2 fold change” value amounted to 0.615. Consider RRIRQRPPRLPRPRPRPINHPRP, for which the “shrunken log2 fold change” value stood at 0.147. In the case of RRIRLRPPRLPRPRPRPMWRPRP, the “shrunken log2 fold change” value stood at 0.194. In the case of RRIRMRPPRLPRPRPRPGYWPRP, the “shrunken log2 fold change” value amounted to 0.0653.

Regarding RRIRYRPPRLPRPRPRPYNNPRP, the “shrunken log2 fold change” value was -1.43. In the case of RRIRFRPPRLPRPRPRPNLEPRP it was -0.257; in that of RRIRLRPPRLPRPRPRPNGVPRP, 0.0191; in that of RRIRMRPPRLPRPRPRPHEMPRP, 0.0891. In the case of RRIRRRPPRLPRPRPRPDAYPRP, the “shrunken log2 fold change” value came out at 0.249.

For RRIRCRPPRLPRPRPRPIARPRP, the “shrunken log2 fold change” value came out at 0.19. In the case of RRIRHRPPRLPRPRPRPDCRPRP, the “shrunken log2 fold change” value is -0.0597.

As to RRIRRRPPRLPRPRPRPANNPRP, the “shrunken log2 fold change” value was -0.0615. In the case of RRIRYRPPRLPRPRPRPQDKPRP it was -0.341; in that of RRIRIRPPRLPRPRPRPILYPRP, -0.357. With RRIRRRPPRLPRPRPRPCIDPRP the figure was -0.211; with RRIRGRPPRLPRPRPRPKNWPRP, 0.466.

For RRIRIRPPRLPRPRPRPNADPRP, the “shrunken log2 fold change” value was -0.322. In the case of RRIRVRPPRLPRPRPRPTGPPRP, the “shrunken log2 fold change” value was 0.164. With RRIRKRPPRLPRPRPRPHQPPRP the figure was 0.413. In the case of RRIRMRPPRLPRPRPRPSSQPRP, the “shrunken log2 fold change” value is 0.212.

Regarding RRIRHRPPRLPRPRPRPTDHPRP, the “shrunken log2 fold change” value is -0.487.

Take RRIRKRPPRLPRPRPRPQGGPRP: the “shrunken log2 fold change” value turned out to be 0.0321. Take RRIRSRPPRLPRPRPRPQKTPRP: the “shrunken log2 fold change” value was found to be 0.0161. For the sequence RRIRRRPPRLPRPRPRPDNLPRP, the “shrunken log2 fold change” value stood at 0.000421. In the case of RRIRQRPPRLPRPRPRPGFRPRP it was 0.0901. Take RRIRGRPPRLPRPRPRPEWSPRP: the “shrunken log2 fold change” value was determined as 0.644. As for RRIRERPPRLPRPRPRPHYIPRP, the “shrunken log2 fold change” value is -0.133. RRIRNRPPRLPRPRPRPFMVPRP: the “shrunken log2 fold change” value is -0.646.

In the case of RRIRKRPPRLPRPRPRPGSMPRP, the “shrunken log2 fold change” value came to 0.285.

Consider RRIRVRPPRLPRPRPRPEPYPRP, for which the “shrunken log2 fold change” value is -0.2. As to RRIRRRPPRLPRPRPRPGLMPRP, the “shrunken log2 fold change” value worked out at 0.342. For the sequence RRIRVRPPRLPRPRPRPMCTPRP, the “shrunken log2 fold change” value was -0.0103.

On to RRIRQRPPRLPRPRPRPFKHPRP, for which the “shrunken log2 fold change” value was -0.244.

For the sequence RRIRGRPPRLPRPRPRPAFPPRP, the “shrunken log2 fold change” value worked out at 0.313. Regarding RRIRHRPPRLPRPRPRPKMQPRP, the “shrunken log2 fold change” value was -0.121. As to RRIRTRPPRLPRPRPRPLAIPRP, the “shrunken log2 fold change” value stood at 0.00788. RRIRQRPPRLPRPRPRPRIYPRP: the “shrunken log2 fold change” value was -0.159. With RRIRFRPPRLPRPRPRPNLHPRP, the “shrunken log2 fold change” value was -0.235. Turning to RRIRSRPPRLPRPRPRPMFKPRP, the “shrunken log2 fold change” value was -0.407. Consider RRIRYRPPRLPRPRPRPENAPRP, for which the “shrunken log2 fold change” value was found to be 0.0607. In the case of RRIRPRPPRLPRPRPRPEHSPRP, the “shrunken log2 fold change” value was -0.0353. On to RRIRVRPPRLPRPRPRPCQMPRP, for which the “shrunken log2 fold change” value was -0.486.

With RRIRKRPPRLPRPRPRPDLYPRP, the “shrunken log2 fold change” value was -0.00937. With RRIRSRPPRLPRPRPRPCKTPRP the figure was 0.0503; with RRIRLRPPRLPRPRPRPSEVPRP, -0.396.

In the case of RRIRLRPPRLPRPRPRPEHFPRP, the “shrunken log2 fold change” value was 0.0339.

As to RRIRLRPPRLPRPRPRPWAGPRP, the “shrunken log2 fold change” value was -0.0317. For the sequence RRIRKRPPRLPRPRPRPSGGPRP, the “shrunken log2 fold change” value is 0.255. Consider RRIRKRPPRLPRPRPRPKSYPRP, for which the “shrunken log2 fold change” value was -0.177.

On to RRIRLRPPRLPRPRPRPEDTPRP, for which the “shrunken log2 fold change” value is -0.00686.

In the case of RRIRWRPPRLPRPRPRPEERPRP, the “shrunken log2 fold change” value came out at 0.0923. Regarding RRIRIRPPRLPRPRPRPMLNPRP, the “shrunken log2 fold change” value was -0.526.

In the case of RRIRERPPRLPRPRPRPVQLPRP, the “shrunken log2 fold change” value is -0.329.

Take RRIRSRPPRLPRPRPRPIWLPRP: the “shrunken log2 fold change” value came out at 0.222.

Take RRIRHRPPRLPRPRPRPVFIPRP: the “shrunken log2 fold change” value was -0.493. For the sequence RRIRWRPPRLPRPRPRPIWVPRP, the “shrunken log2 fold change” value was -0.0257. RRIRKRPPRLPRPRPRPYVAPRP: the “shrunken log2 fold change” value was found to be 0.111. For the sequence RRIRVRPPRLPRPRPRPFKEPRP, the “shrunken log2 fold change” value amounted to 0.121. Consider RRIRDRPPRLPRPRPRPCCYPRP, for which the “shrunken log2 fold change” value was 0.503. As for RRIRERPPRLPRPRPRPDPPPRP, the “shrunken log2 fold change” value turned out to be 0.32. Turning to RRIRIRPPRLPRPRPRPDMFPRP, the “shrunken log2 fold change” value is -0.17. Take RRIRCRPPRLPRPRPRPCPIPRP: the “shrunken log2 fold change” value is -0.52. As for RRIRGRPPRLPRPRPRPVSIPRP, the “shrunken log2 fold change” value was determined as 0.00516. For RRIRERPPRLPRPRPRPTSEPRP, the “shrunken log2 fold change” value came out at 0.0668. Regarding RRIRERPPRLPRPRPRPREIPRP, the “shrunken log2 fold change” value amounted to 0.214. Consider RRIRDRPPRLPRPRPRPHMSPRP, for which the “shrunken log2 fold change” value is -0.00968.

As to RRIRGRPPRLPRPRPRPCFVPRP, the “shrunken log2 fold change” value was found to be 0.319. RRIRDRPPRLPRPRPRPKCAPRP: the “shrunken log2 fold change” value came to 0.169. Regarding RRIRSRPPRLPRPRPRPTLCPRP, the “shrunken log2 fold change” value worked out at 0.0788. In the case of RRIRERPPRLPRPRPRPQTPPRP it was 0.0694. Turning to RRIRARPPRLPRPRPRPSKFPRP, the “shrunken log2 fold change” value was -0.163. Turning to RRIRNRPPRLPRPRPRPIYGPRP, the “shrunken log2 fold change” value was -0.224.

Turning to RRIRHRPPRLPRPRPRPAFIPRP, the “shrunken log2 fold change” value is -0.037.

Regarding RRIRVRPPRLPRPRPRPNAIPRP, the “shrunken log2 fold change” value amounted to 0.0894.

As for RRIRRRPPRLPRPRPRPQYIPRP, the “shrunken log2 fold change” value worked out at 0.0837.

Consider RRIRNRPPRLPRPRPRPNSKPRP, for which the “shrunken log2 fold change” value was -0.331. Take RRIRYRPPRLPRPRPRPWNTPRP: the “shrunken log2 fold change” value is -0.384. On to RRIRIRPPRLPRPRPRPAENPRP, for which the “shrunken log2 fold change” value is -0.0424. On to RRIRRRPPRLPRPRPRPRTCPRP, for which the “shrunken log2 fold change” value amounted to 0.477. In the case of RRIRWRPPRLPRPRPRPECIPRP it was 0.872; in that of RRIRLRPPRLPRPRPRPPMHPRP, 0.363; in that of RRIRRRPPRLPRPRPRPPLYPRP, 0.851. For the sequence RRIRNRPPRLPRPRPRPISSPRP, the “shrunken log2 fold change” value was -0.0365. With RRIRMRPPRLPRPRPRPSMYPRP, the “shrunken log2 fold change” value amounted to 0.081. In the case of RRIRYRPPRLPRPRPRPDMRPRP it was -0.00508; in that of RRIRHRPPRLPRPRPRPIRVPRP, -0.361; in that of RRIRWRPPRLPRPRPRPKFRPRP, 0.077. Take RRIRYRPPRLPRPRPRPPGQPRP: the “shrunken log2 fold change” value came out at 0.0011.

Take RRIRYRPPRLPRPRPRPEFCPRP: the “shrunken log2 fold change” value is -0.258. Consider RRIRVRPPRLPRPRPRPNSCPRP, for which the “shrunken log2 fold change” value is -0.394. As for RRIRVRPPRLPRPRPRPAQDPRP, the “shrunken log2 fold change” value stood at 0.0947. For the sequence RRIRTRPPRLPRPRPRPNCSPRP, the “shrunken log2 fold change” value is -0.435.

As for RRIRFRPPRLPRPRPRPCTSPRP, the “shrunken log2 fold change” value is -0.0377.

RRIRERPPRLPRPRPRPKCVPRP: the “shrunken log2 fold change” value amounted to 0.0364. Take RRIRYRPPRLPRPRPRPRMSPRP: the “shrunken log2 fold change” value was determined as 0.256.

For RRIRLRPPRLPRPRPRPCGQPRP, the “shrunken log2 fold change” value is -0.0417. For the sequence RRIRVRPPRLPRPRPRPEIFPRP, the “shrunken log2 fold change” value was 0.00503. Turning to RRIRERPPRLPRPRPRPNQDPRP, the “shrunken log2 fold change” value worked out at 0.169. Turning to RRIRVRPPRLPRPRPRPEMFPRP, the “shrunken log2 fold change” value is -0.0822. Consider RRIRTRPPRLPRPRPRPTPPPRP, for which the “shrunken log2 fold change” value stood at 0.589. For the sequence RRIRLRPPRLPRPRPRPMSDPRP, the “shrunken log2 fold change” value turned out to be 0.0343.

On to RRIRWRPPRLPRPRPRPTSIPRP, for which the “shrunken log2 fold change” value is -0.22. Turning to RRIRIRPPRLPRPRPRPCKNPRP, the “shrunken log2 fold change” value was -0.299.
